In assay [1] the target is T1, CD27-Fc (human, UniProt P26842 20-191).
T1 construct: extracellular domain; hinge included for covalent assembly; also called CD27 receptor-Fc fusion protein; not shown: human Fc gamma 1 region including the hinge region
T1 sequence (looked up): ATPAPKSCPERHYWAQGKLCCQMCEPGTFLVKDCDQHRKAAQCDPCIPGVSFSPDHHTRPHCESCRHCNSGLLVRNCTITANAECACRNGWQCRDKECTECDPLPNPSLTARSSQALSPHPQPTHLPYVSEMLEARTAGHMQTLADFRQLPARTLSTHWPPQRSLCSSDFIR
The experiment in a line: ELISA, coated receptor-Fc. As for the experimental part: (§1) Receptor binding of the single-chain Duokines was analyzed by ELISA using fusion proteins of the extracellular region of CD40, CD27, 4-1BB and OX40, respectively, with the human Fcγ1 region including the hinge region for covalent assembly (CD40-Fc, CD27-Fc, 4-1BB-Fc, OX40-Fc). Receptor-Fc fusion proteins (200 ng/well) were coated overnight at 4° C. and remaining binding sites were blocked with PBS, 2% skimmed milk powder (2% MPBS). […] The interactions between scDuokine and receptor were dose-dependent with EC₅₀ values in the low nanomolar ranges (FIG. 11 AB, Tab. 2).

The target in another assay is T2, 4-1BB-Fc (human, UniProt Q07011 24-186).
T2 construct: extracellular domain; hinge included for covalent assembly; also called 4-1BB receptor-Fc fusion protein; not shown: human Fc gamma 1 region including the hinge region
The experiment in a line: ELISA, coated receptor-Fc.

In assay [2] the target is T3, CD40-Fc (human, UniProt P25942 21-193).
T3 construct: extracellular domain; hinge included for covalent assembly; also called CD40 receptor-Fc fusion protein; not shown: human Fc gamma 1 region including the hinge region
T3 sequence (P25942 21-193 limits assumed): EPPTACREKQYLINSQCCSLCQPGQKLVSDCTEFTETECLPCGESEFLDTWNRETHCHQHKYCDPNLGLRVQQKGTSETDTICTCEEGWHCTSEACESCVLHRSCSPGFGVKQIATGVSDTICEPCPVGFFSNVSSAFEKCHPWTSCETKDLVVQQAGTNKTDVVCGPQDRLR
The experiment in a line: ELISA, coated receptor-Fc.

Assay [3] has as its target T4, OX40 receptor on cells (human, UniProt P43489 29-277).
T4 sequence (looked up): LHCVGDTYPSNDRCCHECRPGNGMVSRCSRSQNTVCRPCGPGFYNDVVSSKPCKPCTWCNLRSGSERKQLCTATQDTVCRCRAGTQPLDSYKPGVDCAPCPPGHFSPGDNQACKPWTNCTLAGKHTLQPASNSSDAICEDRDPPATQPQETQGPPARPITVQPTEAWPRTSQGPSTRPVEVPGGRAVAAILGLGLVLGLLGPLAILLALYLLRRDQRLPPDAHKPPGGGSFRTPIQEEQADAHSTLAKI
The experiment in a line: cell-based or functional assay.

Assay [4] has as its target T1, CD27-Fc. The assay can be described thus: ELISA, coated receptor-Fc. As for the experimental part:
(§2) Receptor binding of the Duokines was analyzed by ELISA using fusion proteins of the extracellular region of CD40, CD27, 4-1BB and OX40, respectively, with the human Fcγ1 region including the hinge region for covalent assembly (CD40-Fc, CD27-Fc, 4-1BB-Fc, OX40-Fc). Receptor-Fc fusion proteins (200 ng/well) were coated overnight at 4° C. and remaining binding sites were blocked with PBS, 2% skimmed milk powder (2% MPBS).
This is another data set of the same source.

Assay [5] deals with T4, OX40 receptor on cells. The experiment in a line: cell-based or functional assay. This is another data set of the same source.
The target of assay [6] is T3, CD40-Fc. The assay can be described thus: ELISA, coated receptor-Fc. As for the experimental part: as §2
The source holds these as a separate data set.

Assay [7] deals with T5, CD40 receptor on cells (human, UniProt P25942 21-277). The assay can be described thus: cell-based or functional assay.
T5 sequence (P25942 21-277): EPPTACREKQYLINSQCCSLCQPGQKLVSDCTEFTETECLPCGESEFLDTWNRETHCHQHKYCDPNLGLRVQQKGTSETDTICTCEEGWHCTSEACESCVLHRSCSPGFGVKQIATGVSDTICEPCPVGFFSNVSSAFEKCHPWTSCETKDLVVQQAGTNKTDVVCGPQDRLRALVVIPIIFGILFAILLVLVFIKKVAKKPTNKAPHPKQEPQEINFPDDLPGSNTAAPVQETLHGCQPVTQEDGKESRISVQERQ
Another assay has as its target T6, OX40-Fc (human, UniProt P43489 29-214).
T6 construct: extracellular domain; hinge included for covalent assembly; also called OX40 receptor-Fc fusion protein; not shown: human Fc gamma 1 region including the hinge region
T6 sequence (looked up): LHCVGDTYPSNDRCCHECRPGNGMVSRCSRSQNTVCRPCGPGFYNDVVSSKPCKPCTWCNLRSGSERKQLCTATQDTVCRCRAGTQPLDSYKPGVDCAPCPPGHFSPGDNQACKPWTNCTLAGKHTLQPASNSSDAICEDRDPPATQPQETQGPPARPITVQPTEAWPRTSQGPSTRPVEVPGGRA
The experiment in a line: ELISA, coated receptor-Fc.

The target in assay [8] is T3, CD40-Fc. The assay can be described thus: ELISA, coated receptor-Fc. Here is the method: as §1
The source holds these as a separate data set.

The target of assay [9] is T5, CD40 receptor on cells. The experiment in a line: cell-based or functional assay. The source holds these as a separate data set.

Experimental findings from patent publication US20190276511A1 (BIONTECH RNA PHARMACEUTICALS, published 2019) are described below.

Read-outs that look alike come from different tables or passages of the source.

B1: scOX40L-scCD27L (ligand)
chain: QVSHRYPRIQSIKVQFTEYKKEKGFILTSQKEDEIMKVQNNSVIINCDGFYLISLKGYFSQEVNISLHYQKDEEPLFQLKKVRSVNSLMVASLTYKDKVYLNVTTDNTSLDDFHVNGGELILIHQNPGEFCVLGGGSGGGQVSHRYPRIQSIKVQFTEYKKEKGFILTSQKEDEIMKVQNNSVIINCDGFYLISLKGYFSQEVNISLHYQKDEEPLFQLKKVRSVNSLMVASLTYKDKVYLNVTTDNTSLDDFHVNGGELILIHQNPGEFCVLGGGSGGGQVSHRYPRIQSIKVQFTEYKKEKGFILTSQKEDEIMKVQNNSVIINCDGFYLISLKGYFSQEVNISLHYQKDEEPLFQLKKVRSVNSLMVASLTYKDKVYLNVTTDNTSLDDFHVNGGELILIHQNPGEFCVLGGGGSGGGTGGGGSSLGWDVAELQLNHTGPQQDPRLYWQGGPALGRSFLHGPELDKGQLRIHRDGIYMVHIQVTLAICSSTTASRHHPTTLAVGICSPASRSISLLRLSFHQGCTIASQRLTPLARGDTLCTNLTGTLLPSRNTDETFFGVQWVRPGGGSGGGSLGWDVAELQLNHTGPQQDPRLYWQGGPALGRSFLHGPELDKGQLRIHRDGIYMVHIQVTLAICSSTTASRHHPTTLAVGICSPASRSISLLRLSFHQGCTIASQRLTPLARGDTLCTNLTGTLLPSRNTDETFFGVQWVRPGGGSGGGSLGWDVAELQLNHTGPQQDPRLYWQGGPALGRSFLHGPELDKGQLRIHRDGIYMVHIQVTLAICSSTTASRHHPTTLAVGICSPASRSISLLRLSFHQGCTIASQRLTPLARGDTLCTNLTGTLLPSRNTDETFFGVQWVRP
notes: scDuokine from HEK293, FLAG-purified; VH leader left out; also called single-chain Duokine scOX40L-scCD27L; not shown: N-terminal FLAG tag
B1 had an EC50 with CD27-Fc [1] of 4.62 nM. Moreover, the binding result with 4-1BB-Fc and with CD40-Fc [2] was “no binding (tested: 100 nM (FIG. 10))” each time. The “Receptor activation (EC50, nM)” value with OX40 receptor on cells [3] came to 1.27 nM.

B2: OX40L-CD27L (ligand)
chain: QVSHRYPRIQSIKVQFTEYKKEKGFILTSQKEDEIMKVQNNSVIINCDGFYLISLKGYFSQEVNISLHYQKDEEPLFQLKKVRSVNSLMVASLTYKDKVYLNVTTDNTSLDDFHVNGGELILIHQNPGEFCVLGGGGSGGGGSGGGGSSLGWDVAELQLNHTGPQQDPRLYWQGGPALGRSFLHGPELDKGQLRIHRDGIYMVHIQVTLAICSSTTASRHHPTTLAVGICSPASRSISLLRLSFHQGCTIASQRLTPLARGDTLCTNLTGTLLPSRNTDETFFGVQWVRP
notes: Duokine from HEK293, FLAG-purified; VH leader left out; homotrimer by SEC; also called Duokine OX40L-CD27L; not shown: N-terminal FLAG tag
Take B2: the midpoint of the response with CD27-Fc [4], the EC50, lay at 1.7 nM. In addition, the “Receptor activation (EC50, nM)” value in the assay with OX40 receptor on cells [5] was found to be 6.58 nM. The binding result with 4-1BB-Fc and in the assay with CD40-Fc [2] was “no binding (tested: 100 nM (FIG. 4))” each time.

B3: CD40L-CD27L (ligand)
chain: GDQNPQIAAHVISEASSKTTSVLQWAEKGYYTMSNNLVTLENGKQLTVKRQGLYYIYAQVTFCSNREASSQAPFIASLCLKSPGRFERILLRAANTHSSAKPCGQQSIHLGGVFELQPGASVFVNVTDPSQVSHGTGFTSFGLLKLGGGGSGGGGSGGGGSSLGWDVAELQLNHTGPQQDPRLYWQGGPALGRSFLHGPELDKGQLRIHRDGIYMVHIQVTLAICSSTTASRHHPTTLAVGICSPASRSISLLRLSFHQGCTIASQRLTPLARGDTLCTNLTGTLLPSRNTDETFFGVQWVRP
notes: Duokine from HEK293, FLAG-purified; VH leader left out; homotrimer by SEC; also called Duokine CD40L-CD27L; not shown: N-terminal FLAG tag
Turning to B3, the values for the EC50 with CD27-Fc [4] and with CD40-Fc [6] were 3.15 nM and 8.06 nM, respectively. Also, in the assay with CD40 receptor on cells [7], the “Receptor activation (EC50, nM)” value is 2.36 nM. Further, the binding result in the assay with 4-1BB-Fc and with OX40-Fc was “no binding (tested: 100 nM (FIG. 4))” in each case.

B4: scCD40L-scCD27L (ligand)
chain: GDQNPQIAAHVISEASSKTTSVLQWAEKGYYTMSNNLVTLENGKQLTVKRQGLYYIYAQVTFCSNREASSQAPFIASLCLKSPGRFERILLRAANTHSSAKPCGQQSIHLGGVFELQPGASVFVNVTDPSQVSHGTGFTSFGLLKLGGGSGGGGDQNPQIAAHVISEASSKTTSVLQWAEKGYYTMSNNLVTLENGKQLTVKRQGLYYIYAQVTFCSNREASSQAPFIASLCLKSPGRFERILLRAANTHSSAKPCGQQSIHLGGVFELQPGASVFVNVTDPSQVSHGTGFTSFGLLKLGGGSGGGGDQNPQIAAHVISEASSKTTSVLQWAEKGYYTMSNNLVTLENGKQLTVKRQGLYYIYAQVTFCSNREASSQAPFIASLCLKSPGRFERILLRAANTHSSAKPCGQQSIHLGGVFELQPGASVFVNVTDPSQVSHGTGFTSFGLLKLGGGGSGGGTGGGGSSLGWDVAELQLNHTGPQQDPRLYWQGGPALGRSFLHGPELDKGQLRIHRDGIYMVHIQVTLAICSSTTASRHHPTTLAVGICSPASRSISLLRLSFHQGCTIASQRLTPLARGDTLCTNLTGTLLPSRNTDETFFGVQWVRPGGGSGGGSLGWDVAELQLNHTGPQQDPRLYWQGGPALGRSFLHGPELDKGQLRIHRDGIYMVHIQVTLAICSSTTASRHHPTTLAVGICSPASRSISLLRLSFHQGCTIASQRLTPLARGDTLCTNLTGTLLPSRNTDETFFGVQWVRPGGGSGGGSLGWDVAELQLNHTGPQQDPRLYWQGGPALGRSFLHGPELDKGQLRIHRDGIYMVHIQVTLAICSSTTASRHHPTTLAVGICSPASRSISLLRLSFHQGCTIASQRLTPLARGDTLCTNLTGTLLPSRNTDETFFGVQWVRP
notes: scDuokine from HEK293, FLAG-purified; VH leader left out; also called single-chain Duokine scCD40L-scCD27L; not shown: N-terminal FLAG tag
Take B4: the results for the EC50 in the assay with CD27-Fc [1] and with CD40-Fc [8] were 3.42 nM and 4.26 nM, respectively. Further, the binding result in the assay with 4-1BB-Fc and with OX40-Fc was “no binding (tested: 100 nM (FIG. 10))” each time. Also, the “Receptor activation (EC50, nM)” value with CD40 receptor on cells [9] was determined as 3.1 nM.

B5: CD27L-CD40L (ligand)
chain: SLGWDVAELQLNHTGPQQDPRLYWQGGPALGRSFLHGPELDKGQLRIHRDGIYMVHIQVTLAICSSTTASRHHPTTLAVGICSPASRSISLLRLSFHQGCTIASQRLTPLARGDTLCTNLTGTLLPSRNTDETFFGVQWVRPGGGGSGGGGSGGGGSGDQNPQIAAHVISEASSKTTSVLQWAEKGYYTMSNNLVTLENGKQLTVKRQGLYYIYAQVTFCSNREASSQAPFIASLCLKSPGRFERILLRAANTHSSAKPCGQQSIHLGGVFELQPGASVFVNVTDPSQVSHGTGFTSFGLLKL
notes: Duokine from HEK293, FLAG-purified; VH leader left out; homotrimer by SEC; also called Duokine CD27L-CD40L; not shown: N-terminal FLAG tag
With B5, the figures for the EC50 with CD27-Fc [4] and with CD40-Fc [6] were 5.9 nM and 3.31 nM, respectively. In addition, in the assay with CD40 receptor on cells [7], the “Receptor activation (EC50, nM)” value was 2.99 nM. The binding result with 4-1BB-Fc and in the assay with OX40-Fc was “no binding (tested: 100 nM (FIG. 4))” in each case.
